{"source": "patent US20060292634A1", "about": "(CATCHMABS B V, published 2006)", "binders": {"B1": {"name": "iMab1202 (designed binder)", "chain": "IVKLVMEKRGNFENGQDCKLTIRASGYTIGPACDGFFCQFPSDDSFSTEDNMGGGITVNDAMKPQFDIRRDNAKGTWTLSMDFQPEGIYEMQCAADSTIYASYYECGHGLSTGGYGYDNPVRLGGFDVDVPDV", "notes": "also called iMab1202 (1EJ6); not shown: C-terminal linker, VSV-tag and 6xHis-tag from vector CM126"}, "B2": {"name": "iMab122 (designed binder)", "chain": "NVKLVEKGGNFVENDDDLKLTCRASGRTFSSRTMGWFRQAPNDDSTNVATIRWNGGSTYYTNYGDSVKERFDIRVDQASNTVTLSMDDLQPEDSAEYNCAGTDIGDGWSGRYDYRGQGTDVTVSS", "notes": "not shown: C-terminal linker, VSV-tag and 6xHis-tag from vector CM126"}, "B3": {"name": "iMab1300 (designed binder)", "chain": "LQVDIKPSQGEISVGESKFFLCQASGYTIGPCISWFSPNGEKLNMGSSTLTIYNANIDDAGIYKCAADSTIYASYYECGHGLSTGGYGYQSEATVNVKIFQ", "notes": "as for B2"}, "B4": {"name": "iMab111 (designed binder)", "chain": "NVKLVCKGGNFVENDDDLKLTCRAEGYTIGPYCMGWFRQAPNDDSTNVATINMGGGITYYGDSVKERFDIRRDNASNTVTLSMDDLQPEDSAEYNCAGDSTIYASYYECGHGLSTGGYGYDSHYRCQGTDVTVSS", "notes": "as for B2"}, "B5": {"name": "iMab115 (designed binder)", "chain": "B4 chain with C6E, N74Q, C126G", "notes": "Expressed in E. coli (21 kD); also called iMab without glycosylation site"}, "B6": {"name": "iMab1302 (designed binder)", "chain": "VVKVVIKPSQNFIENGEDKKFTCRASGYTIGPKCIGWFSQNPEDDSTNVATINMGGGITYYGDSVKERFDIRRDNAKDTSTLSIDDAQPEDAGIYKCAADSTIYASYYECGHGLSTGGYGYDSEATVGVDIFVKLM", "notes": "as for B2"}, "B7": {"name": "iMab1602 (designed binder)", "chain": "AVKPVIGSKAPNFGENGDVKTIDRASGYTIGPTCGGVFFQGPTDDSTNVATINMGGGITYYGDSVKETFDIRRDNAKSTRTESYDDNQPEGLTEVKCAADSTIYASYYECGHGLSTGGYGYDVSSRLYGYDILVGTQ", "notes": "as for B2"}}, "key": {"chicken lysozyme [1]": {"target": "T1, chicken lysozyme (chicken, UniProt P00698 19-147)", "T1 construct": "Coated on ELISA plates (100 µg/ml) or immobilized on / passed over Eupergit columns", "T1 sequence (P00698 19-147 limits assumed)": "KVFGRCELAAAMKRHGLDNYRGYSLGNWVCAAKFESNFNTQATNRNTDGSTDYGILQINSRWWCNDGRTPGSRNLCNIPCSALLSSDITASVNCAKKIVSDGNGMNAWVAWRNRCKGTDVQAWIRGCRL", "experiment": "ELISA, lysozyme-coated well (100 µg/ml), ~50 ng iMab per well, anti-VSV-HRP; urea-purified", "protocol": "(§1) The microtiter plate was excessively washed with PBS (3 times), PBS+0.1% Tween-20 (3 times) and PBS (3 times).\n(§2) After excessive washing using PBS (3 times), PBS+0.1% Tween-20 (3 times) and PBS (3 times), wells were incubated with 100 μl Turbo-TMB for 5 minutes. Reaction was stopped with 100 μl 2M H₂SO₄ and absorbtion was read at 450 nm using a microtiter plate reader (Biorad)."}, "chicken lysozyme [2]": {"target": "T1, chicken lysozyme", "experiment": "ELISA on lysozyme, 100-fold dilution of the protein extract", "protocol": "as §1, §2"}, "chicken lysozyme [3]": {"target": "T1, chicken lysozyme", "experiment": "ELISA"}}, "note": "Changes are numbered by the printed parent chain.", "data": [{"binder": "B1", "values": [{"measurement": "Absorbtion (450 nm)", "setting": "chicken lysozyme [1]", "result": 0.317, "unit": "A450"}]}, {"binder": "B2", "values": [{"measurement": "Absorbtion (450 nm)", "setting": "chicken lysozyme [1]", "result": 0.271, "unit": "A450"}]}, {"binder": "B3", "values": [{"measurement": "Absorbtion (450 nm)", "setting": "chicken lysozyme [1]", "result": 0.325, "unit": "A450"}]}, {"binder": "B4", "values": [{"measurement": "Absorbtion (450 nm)", "setting": "chicken lysozyme [1]", "result": 0.42, "unit": "A450"}, {"measurement": "ELISA signal over background signal (fold)", "setting": "chicken lysozyme [2]", "result": "~20", "unit": "fold"}]}, {"binder": "B5", "values": [{"measurement": "binding result", "setting": "chicken lysozyme [3]", "result": "binds"}]}, {"binder": "B6", "values": [{"measurement": "Absorbtion (450 nm)", "setting": "chicken lysozyme [1]", "result": 0.345, "unit": "A450"}]}, {"binder": "B7", "values": [{"measurement": "Absorbtion (450 nm)", "setting": "chicken lysozyme [1]", "result": 0.357, "unit": "A450"}]}]}
